B1: FIXa-Y155F/R338E/T343R/R403E (protein)
chain 1: YNSGKLEEFVQGNLERECMEEKCSFEEAREVFENTERTTEFWKQYVDGDQCESNPCLNGGSCKDDINSYECWCPFGFEGKNCELDVTCNIKNGRCEQFCKNSADNKVVCSCTEGYRLAENQKSCEPAVPFPCGRVSVSQTSKLTR
chain 2: VVGGEDAKPGQFPWQVVLNGKVDAFCGGSIVNEKWIVTAAHCVETGVKITVVAGEHNIEETEHTEQKRNVIRIIPHHNYNAAINKYNHDIALLELDEPLVLNSYVTPICIADKEYTNIFLKFGSGYVSGWGRVFHKGRSALVLQYLRVPLVDRATCLESTKFRIYNNMFCAGFHEGGRDSCQGDSGGPHVTEVEGTSFLTGIISWGEECAMKGKYGIYTKVSEYVNWIKEKTKLT
B2: FIXa-A103N/N105S/R318Y/R338E/R403E/E410N (mature FIX numbering) (protein)
chain 1: B1 chain 1 with A103N, N105S
chain 2: B1 chain 2 with R138Y, R163T, E230N
B3: FIXa-Y155F/R318Y/R338E/T343R (protein)
chain 1: B1 chain 1
chain 2: B1 chain 2 with R138Y, E223R
B4: FIXa-D203N/F205T/R318Y/E410N (mature FIX numbering) (protein)
chain 1: B1 chain 1
chain 2: B1 chain 2 with D23N, F25T, R138Y, E158R, R163T, E223R, E230N
B5: FIXa-Y155F/N260S/R338E/T343R/R403E (protein)
chain 1: B1 chain 1
chain 2: B1 chain 2 with N80S
B6: FIXa-D104N/K106S/R318Y/R338E/R403E/E410N (mature FIX numbering) (protein)
chain 1: B1 chain 1 with D104N, K106S
chain 2: B1 chain 2 with R138Y, R163T, E230N
B7: FIXa-Y155F/K247N/N249S/R318Y/R338E/T343R/R403E (protein)
chain 1: B1 chain 1
chain 2: B1 chain 2 with K67N, N69S, R138Y
B8: FIXa-Y155F/K247N/N249S/R318Y/R403E (protein)
chain 1: B1 chain 1
chain 2: B1 chain 2 with K67N, N69S, R138Y, E158R, R163T
B9: FIXa-Y155F/K247N/N249S/R318Y/R338E/T343R/E410N (protein)
chain 1: B1 chain 1
chain 2: B1 chain 2 with K67N, N69S, R138Y, E223R, E230N
B10: FIXa-K247N/N249S/T343R/R403E/E410N (protein)
chain 1: B1 chain 1
chain 2: B1 chain 2 with K67N, N69S, E158R, E230N
B11: FIXa-Y155F/K247N/N249S/T343R/R403E (protein)
chain 1: B1 chain 1
chain 2: B1 chain 2 with K67N, N69S, E158R
B12: FIXa-R338E/T343R/R403E (protein)
chain 1: B1 chain 1
chain 2: B1 chain 2
B13: FIXa-Y155F/K247N/N249S/R318Y/R338E (protein)
chain 1: B1 chain 1
chain 2: B1 chain 2 with K67N, N69S, R138Y, R163T, E223R
B14: FIXa-Y155F/K247N/N249S/R338E/T343R (protein)
chain 1: B1 chain 1
chain 2: B1 chain 2 with K67N, N69S, E223R
B15: FIXa-R318Y/R338E/T343R (protein)
chain 1: B1 chain 1
chain 2: B1 chain 2 with R138Y, E223R
B16: FIXa-Y155F/K247N/N249S/R318Y/E410N (protein)
chain 1: B1 chain 1
chain 2: B1 chain 2 with K67N, N69S, R138Y, E158R, R163T, E223R, E230N
B17: FIXa-D104N/K106S/Y155F/R318Y/R338E/R403E/E410N (mature FIX numbering) (protein)
chain 1: B1 chain 1 with D104N, K106S
chain 2: B1 chain 2 with R138Y, R163T, E230N
B18: FIXa-K247N/N249S/R318Y/R338E/T343R/R403E (protein)
chain 1: B1 chain 1
chain 2: B1 chain 2 with K67N, N69S, R138Y
B19: FIXa-Y155F/K247N/N249S/R318Y/T343R (protein)
chain 1: B1 chain 1
chain 2: B1 chain 2 with K67N, N69S, R138Y, E158R, E223R
B20: FIXa-R318Y/R338E/T343R/R403E/E410S (protein)
chain 1: B1 chain 1
chain 2: B1 chain 2 with R138Y, E230S
B21: FIXa-K247N/N249S/R338E/T343R/R403E/E410N (protein)
chain 1: B1 chain 1
chain 2: B1 chain 2 with K67N, N69S, E230N
B22: FIXa-Y155F/K247N/N249S/R338E/T343R/R403E/E410N (protein)
chain 1: B1 chain 1
chain 2: B1 chain 2 with K67N, N69S, E230N
B23: FIXa-Y155F/R338E/T343R/R403E/E410S (protein)
chain 1: B1 chain 1
chain 2: B1 chain 2 with E230S
B24: FIXa-Y155F/R318Y/R338E/R403E/E410N (mature FIX numbering) (protein)
chain 1: B1 chain 1
chain 2: B1 chain 2 with R138Y, R163T, E230N
B25: FIXa-Y155F/K247N/N249S/R338E/R403E (protein)
chain 1: B1 chain 1
chain 2: B1 chain 2 with K67N, N69S, R163T
B26: FIXa-A103N/N105S/Y155F/R318Y/R338E/R403E/E410N (mature FIX numbering) (protein)
chain 1: B1 chain 1 with A103N, N105S
chain 2: B1 chain 2 with R138Y, R163T, E230N
B27: FIXa-Y155F/I251S/R338E/T343R/R403E (protein)
chain 1: B1 chain 1
chain 2: B1 chain 2 with I71S
B28: FIXa-Y155F/R318Y/T343R/R403E (protein)
chain 1: B1 chain 1
chain 2: B1 chain 2 with R138Y, E158R

Residue numbers refer to the chain shown, from its start. Names may count otherwise.

28 proteins from patent US20210238260 can be followed below.

Factor X, P00742, sequence (P00742 whole entry, looked up): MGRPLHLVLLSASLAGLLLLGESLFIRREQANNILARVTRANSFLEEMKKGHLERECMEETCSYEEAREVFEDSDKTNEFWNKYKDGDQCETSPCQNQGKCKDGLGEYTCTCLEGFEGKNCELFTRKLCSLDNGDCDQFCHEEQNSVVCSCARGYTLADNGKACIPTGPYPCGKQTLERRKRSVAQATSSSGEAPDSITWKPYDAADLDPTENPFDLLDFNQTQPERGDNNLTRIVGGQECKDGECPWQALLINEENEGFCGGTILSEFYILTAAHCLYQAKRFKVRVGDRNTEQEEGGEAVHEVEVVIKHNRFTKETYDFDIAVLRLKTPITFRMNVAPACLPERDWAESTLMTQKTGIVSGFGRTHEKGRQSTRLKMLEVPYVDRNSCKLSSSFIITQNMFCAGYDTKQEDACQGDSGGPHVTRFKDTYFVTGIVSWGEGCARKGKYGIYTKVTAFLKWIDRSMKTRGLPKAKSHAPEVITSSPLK

The first series addresses Factor X, P00742.
For the protein B1, the “% of WT kcat/KM” value was 429%, the kcat amounted to 5.2 s⁻¹ and the kcat/KM was 2e+08 M⁻¹ s⁻¹.

Take B2: the “% of WT kcat/KM” value is on record as 327% and the kcat/KM came out at 1.5e+08 M⁻¹ s⁻¹.

B3: the KM came to 24.2 nM.

For B4, the “% of WT kcat/KM” value is on record as 88% and the kcat/KM came out at 3.9e+07 M⁻¹ s⁻¹.

Consider B5, for which the “% of WT kcat/KM” value is on record as 203%, the kcat was 6.4 s⁻¹ and the kcat/KM turned out to be 9.4e+07 M⁻¹ s⁻¹.

As to B6, the “% of WT kcat/KM” value is 377% and the kcat/KM was 1.7e+08 M⁻¹ s⁻¹.

On to B7, for which the “% of WT kcat/KM” value turned out to be 630%, the kcat is 10.6 s⁻¹ and the kcat/KM was determined as 2.9e+08 M⁻¹ s⁻¹.

Turning to B8, the kcat was determined as 1.7 s⁻¹.

Regarding B9, the kcat came to 7.7 s⁻¹.

As to B10, the KM came out at 60 nM.

As to B11, the “% of WT kcat/KM” value is listed as 184%, the kcat worked out at 4.7 s⁻¹ and the specificity constant (kcat/KM) came out at 8.5e+07 M⁻¹ s⁻¹.

Take B12: the “% of WT kcat/KM” value was 663%, the kcat amounted to 6.9 s⁻¹ and the kcat/KM is 3.1e+08 M⁻¹ s⁻¹.

Regarding B13, the kcat turned out to be 7.5 s⁻¹.

As to B14, the kcat worked out at 10.6 s⁻¹.

In the case of B15, the KM was 30 nM.

B16: the kcat is 3.4 s⁻¹.

As for B17, the “% of WT kcat/KM” value is listed as 394% and the kcat/KM came to 1.8e+08 M⁻¹ s⁻¹.

As for B18, the “% of WT kcat/KM” value is 886%, the turnover number (kcat) came to 9.2 s⁻¹ and the kcat/KM was 4.1e+08 M⁻¹ s⁻¹.

Take B19: the kcat was determined as 10.3 s⁻¹.

For B20, the “% of WT kcat/KM” value worked out at 962%, the kcat was found to be 7.6 s⁻¹ and the kcat/KM was 4.4e+08 M⁻¹ s⁻¹.

Turning to B21, the kcat was 10.8 s⁻¹.

As for B22, the “% of WT kcat/KM” value amounted to 805%, the kcat is 9.8 s⁻¹ and the kcat/KM is 3.7e+08 M⁻¹ s⁻¹.

Regarding B23, the “% of WT kcat/KM” value was determined as 629%, the kcat was found to be 6.8 s⁻¹ and the kcat/KM was determined as 2.9e+08 M⁻¹ s⁻¹.

In the case of B24, the “% of WT kcat/KM” value is on record as 418% and the kcat/KM was 1.9e+08 M⁻¹ s⁻¹.

With B25, the kcat worked out at 5.3 s⁻¹.

Take B26: the “% of WT kcat/KM” value turned out to be 283% and the kcat/KM was determined as 1.3e+08 M⁻¹ s⁻¹.

B27: the “% of WT kcat/KM” value came out at 651%, the kcat is 5.9 s⁻¹ and the kcat/KM turned out to be 3e+08 M⁻¹ s⁻¹.

For the protein B28, the KM turned out to be 72.7 nM.

The target of a further series is Factor X (FX), P00742.
Factor X (FX), P00742, sequence (P00742 whole entry, looked up): as above
On to B1, for which the KM was found to be 28.9 nM.

On to B3, for which the “% of WT kcat/KM” value turned out to be 771%; the kcat (s^-1) of FX activation by FIXa variant in the Xase complex (FVIIIa, PC/PS vesicles, Ca2+), fluorogenic FXa read-out was 7.9 s⁻¹; the kcat/KM for FX activation (Xase: FVIIIa, PC/PS vesicles, Ca2+) amounted to 3.6e+08 M⁻¹ s⁻¹.

For the protein B5, the Michaelis constant (KM) turned out to be 69.2 nM.

As for B7, the Michaelis constant (KM) is 36.5 nM.

On to B8, for which the “% of WT kcat/KM” value turned out to be 34%; the KM amounted to 109 nM; the kcat/KM for FX activation (Xase: FVIIIa, PC/PS vesicles, Ca2+) turned out to be 1.6e+07 M⁻¹ s⁻¹.

For the protein B9, the “% of WT kcat/KM” value is given as 1091%; the KM stood at 17.7 nM; the kcat/KM for FX activation (Xase: FVIIIa, PC/PS vesicles, Ca2+) came out at 5e+08 M⁻¹ s⁻¹.

Consider B10, for which the “% of WT kcat/KM” value amounted to 285%; the kcat (s^-1) of FX activation by FIXa variant in the Xase complex (FVIIIa, PC/PS vesicles, Ca2+), fluorogenic FXa read-out was 8 s⁻¹; the kcat/KM for FX activation (Xase: FVIIIa, PC/PS vesicles, Ca2+) was 1.3e+08 M⁻¹ s⁻¹.

Consider B11, for which the KM is 59.6 nM.

Regarding B12, the KM is 23.5 nM.

For the protein B13, the “% of WT kcat/KM” value stood at 632%; the KM worked out at 26.3 nM; the kcat/KM for FX activation (Xase: FVIIIa, PC/PS vesicles, Ca2+) turned out to be 2.9e+08 M⁻¹ s⁻¹.

Consider B14, for which the “% of WT kcat/KM” value is given as 1579%; the KM turned out to be 15.3 nM; the kcat/KM for FX activation (Xase: FVIIIa, PC/PS vesicles, Ca2+) amounted to 7.3e+08 M⁻¹ s⁻¹.

For B15, the “% of WT kcat/KM” value came out at 324%; the kcat (s^-1) of FX activation by FIXa variant in the Xase complex (FVIIIa, PC/PS vesicles, Ca2+), fluorogenic FXa read-out was 4.5 s⁻¹; the kcat/KM for FX activation (Xase: FVIIIa, PC/PS vesicles, Ca2+) was 1.5e+08 M⁻¹ s⁻¹; the “proteolytic cleavage and activation of purified factor X” value is “catalyzes the proteolytic cleavage and activation of purified factor X to the same extent in the presence of (1) poly-L-lysine phospholipid/calcium, and (3) factor VIIIa/phospholipid/calcium”.

As for B16, the “% of WT kcat/KM” value is given as 155%; the KM is 48.8 nM; the kcat/KM for FX activation (Xase: FVIIIa, PC/PS vesicles, Ca2+) is 7.2e+07 M⁻¹ s⁻¹.

For B18, the KM was found to be 28.4 nM.

For B19, the “% of WT kcat/KM” value was found to be 549%; the KM worked out at 42.1 nM; the kcat/KM for FX activation (Xase: FVIIIa, PC/PS vesicles, Ca2+) worked out at 2.5e+08 M⁻¹ s⁻¹.

As to B20, the KM was found to be 19 nM.

On to B21, for which the “% of WT kcat/KM” value worked out at 930%; the KM stood at 25.1 nM; the kcat/KM for FX activation (Xase: FVIIIa, PC/PS vesicles, Ca2+) is 4.3e+08 M⁻¹ s⁻¹.

Regarding B22, the KM is 26.4 nM.

As to B23, the KM is 23.9 nM.

With B25, the “% of WT kcat/KM” value turned out to be 299%; the KM worked out at 40.9 nM; the kcat/KM for FX activation (Xase: FVIIIa, PC/PS vesicles, Ca2+) is 1.4e+08 M⁻¹ s⁻¹.

Consider B27, for which the KM was 19.6 nM.

As to B28, the “% of WT kcat/KM” value turned out to be 154%; the kcat (s^-1) of FX activation by FIXa variant in the Xase complex (FVIIIa, PC/PS vesicles, Ca2+), fluorogenic FXa read-out amounted to 5 s⁻¹; the kcat/KM for FX activation (Xase: FVIIIa, PC/PS vesicles, Ca2+) turned out to be 7.1e+07 M⁻¹ s⁻¹.

One may read the kcat as the number of substrate molecules converted per active site and unit of time at saturation. A word on the kcat/KM: it is the second-order rate constant that governs catalysis at low substrate concentration. By KM is commonly meant the concentration of substrate that gives half-maximal velocity.
